Assay results from the supplement of paper PMC10126150.
± gives the standard deviation of the averaged measurements.

Tested on: ATP
Assay: switch fluorescence ratio, 500 uM ATP over buffer (Cy3 cluster intensity, sum of 5 cycles each) (fold (ratio)); higher = stronger signal-on switching upon ATP binding; sequences stand for … in TCGTCGGCAGCGTCAGATGTGTATAAGAGACAGTTTTTTTTTTTTTTTTTTTTTTTTT…TC
Conditions: aptamer strand: ATP DNA aptamer (quencher-CACCTGGGGGAGTATTGCGGAGGAAGG + anchor), 100 nM annealed; ATP concentration: 500 uM
Method in brief: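 Per cluster, summed Cy3 intensity from the target cycles was divided by that from the buffer cycles to give the fluorescence ratio, then averaged per switch-domain sequence. Clusters outside 100-1000 RFU were excluded. The Cy3-labelled switching-strand clusters, on a modified Illumina MiSeq flow-cell, were annealed to 100 nM quencher-labelled ATP aptamer and imaged in selection buffer, then after 15 min with 500 uM ATP at 22 °C, for five cycles with NaOH stripping and re-annealing between them.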
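Also: ATP exposure 15 min at 22 °C before imaging.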

| Sequence | switch fluorescence ratio |
| --- | --- |
| CATTATTTTT | 1.01 ± 0.024 |
| CATTCATGTT | 0.985 ± 0.024 |
| CATTCATTGA | 0.998 ± 0.049 |
| CATTCGATGC | 1.265 ± 0.0044 |
| CATTCGCTTT | 1.88 ± 0.036 |
| CATTCGTAGG | 0.965 ± 0.042 |
| CATTCTAAAG | 1.02 ± 0.011 |
| CATTCTACGT | 1.04 ± 0.018 |
| CATTCTATGC | 1.03 ± 0.011 |
| CATTCTCAAT | 1.17 ± 0.056 |
| CATTGAAATT | 0.968 ± 0.032 |
| CATTGAGGGC | 0.987 ± 0.021 |
| CATTGCATTT | 1.3 ± 0.4 |
| CATTGCTATT | 1.02 ± 0.017 |
| CATTGGACGT | 1.029 ± 0.0063 |
| CATTGGGTG | 1.05 ± 0.018 |
| CATTGGGTGT | 1.03 ± 0.0098 |
| CATTGTGACT | 1 ± 0.016 |
| CATTGTGCCT | 1.04 ± 0.018 |
| CATTGTGTGA | 0.994 ± 0.021 |
| CATTGTGTTT | 0.9707 ± 0.0029 |
| CATTTAAGTC | 0.995 ± 0.023 |
| CATTTACGCT | 1.03 ± 0.014 |

| Sequence | switch fluorescence ratio |
| --- | --- |
| CATTTAGTAT | 1.01 ± 0.013 |
| CATTTATTCT | 0.9615 ± 0.0021 |
| CATTTATTGT | 0.992 ± 0.018 |
| CATTTCAAGG | 1 ± 0.043 |
| CATTTGCTCT | 1 ± 0.013 |
| CATTTGGATG | 1.02 ± 0.013 |
| CATTTGGCGT | 0.972 ± 0.029 |
| CATTTGGGGG | 0.977 ± 0.025 |
| CATTTGGTCG | 0.955 ± 0.13 |
| CATTTTAATA | 1.01 ± 0.021 |
| CATTTTGTAG | 1.039 ± 0.0043 |
| CATTTTTGAA | 1.006 ± 0.0066 |
| CATTTTTGTG | 0.9534 ± 0.0061 |
| CATTTTTTAG | 1.01 ± 0.016 |
| CCAAAATTGA | 1 ± 0.014 |
| CCAAACTTAG | 1.02 ± 0.027 |
| CCAAAGAGGG | 0.993 ± 0.02 |
| CCAAAGCTAG | 2.1 ± 0.028 |
| CCAAATCAGA | 0.986 ± 0.021 |
| CCAACGGTCT | 1.04 ± 0.0012 |
| CCAAGAGGAC | 1 ± 0.027 |
| CCAAGATGTG | 0.997 ± 0.01 |
| CCAAGCGGTA | 1.3 ± 0.026 |

| Sequence | switch fluorescence ratio |
| --- | --- |
| CCAAGGGATG | 0.967 ± 0.018 |
| CCAAGGGGAG | 0.988 ± 0.037 |
| CCAAGGGGTT | 1.01 ± 0.03 |
| CCAATAGAGT | 0.997 ± 0.046 |
| CCAATATAGC | 1.21 ± 0.016 |
| CCAATATTCG | 1.09 ± 0.056 |
| CCAATGAGGT | 0.9962 ± 0.0084 |
| CCAATGATAA | 1.014 ± 0.0034 |
| CCAATTGCGC | 1.03 ± 0.031 |
| CCAATTTGCT | 1.02 ± 0.056 |
| CCACCTTAAG | 1.04 ± 0.033 |
| CCACGAAGAT | 1.061 ± 0.0037 |
| CCACGCCAGG | 2.79 ± 0.084 |
| CCACGCCCGG | 1.15 ± 0.099 |
| CCACGCCTGT | 1.09 ± 0.022 |
| CCACTATTCT | 1.001 ± 0.0062 |
| CCACTTTCCT | 1.2 ± 0.021 |
| CCAGAAGGGT | 0.974 ± 0.02 |
| CCAGACACAC | 1.45 ± 0.018 |
| CCAGACAGC | 1.01 ± 0.052 |
| CCAGACCAGT | 1.011 ± 0.0024 |
| CCAGAGGAAT | 1.043 ± 0.0079 |
| CCAGAGGGGG | 0.985 ± 0.067 |

| Sequence | switch fluorescence ratio |
| --- | --- |
| CCAGAGGGGT | 1.04 ± 0.02 |
| CCAGAGTGTT | 1.33 ± 0.04 |
| CCAGCCTTTT | 1.025 ± 0.0039 |
| CCAGCTACGG | 1.06 ± 0.053 |
| CCAGCTGTAT | 1.04 ± 0.0024 |
| CCAGCTTTTT | 0.957 ± 0.054 |
| CCAGGAATAA | 1.11 ± 0.14 |
| CCAGGAGTGT | 1.08 ± 0.012 |
| CCAGGCTCTG | 0.993 ± 0.006 |
| CCAGGGGCGC | 1.04 ± 0.017 |
| CCAGGGGCGG | 1.067 ± 0.002 |
| CCAGGGGCGT | 1.393 ± 0.012 |
| CCAGGGGTCC | 2.93 ± 2.4 |
| CCAGGGTTGG | 1.04 ± 0.048 |
| CCAGGTAGCA | 1.27 ± 0.12 |
| CCAGGTATGG | 1.05 ± 0.013 |
| CCAGGTCATA | 1.07 ± 0.011 |
| CCAGGTCCGC | 1.455 ± 0.0073 |
| CCAGTATGTG | 1.04 ± 0.054 |
| CCAGTCTGTA | 0.9492 ± 0.0057 |
| CCAGTGATGG | 1 ± 0.042 |
| CCAGTGGTTT | 1.01 ± 0.012 |
| CCATAAACTA | 1.01 ± 0.066 |

| Sequence | switch fluorescence ratio |
| --- | --- |
| CCATAACTTA | 0.9782 ± 0.0033 |
| CCATAAGAAT | 1.01 ± 0.038 |
| CCATACAGTT | 1.01 ± 0.021 |
| CCATAGGTCC | 1.017 ± 0.0071 |
| CCATAGTTTG | 0.993 ± 0.018 |
| CCATATCGTT | 0.997 ± 0.01 |
| CCATATTCTC | 1.016 ± 0.0072 |
| CCATCTATCG | 1.03 ± 0.026 |
| CCATCTCTGG | 0.979 ± 0.022 |
| CCATGCACTG | 1.017 ± 0.0028 |
| CCATGCCGGG | 0.979 ± 0.052 |
| CCATGGGCGA | 1.1 ± 0.02 |
| CCATGGGGCT | 1.29 ± 0.46 |
| CCATGGGTTC | 1.0016 ± 0.00068 |
| CCATGGTTAT | 1.026 ± 0.0034 |
| CCATGTTGCT | 0.9612 ± 0.0059 |
| CCATTAAACT | 1.014 ± 0.008 |
| CCATTAGCAT | 2.12 ± 0.2 |
| CCATTATATC | 1.01 ± 0.047 |
| CCATTCTTCG | 1.08 ± 0.028 |
| CCATTGACGG | 1.04 ± 0.02 |
| CCATTGCACG | 1.16 ± 0.12 |
| CCATTGCTCG | 1.04 ± 0.05 |

| Sequence | switch fluorescence ratio |
| --- | --- |
| CCATTGTAGC | 1.03 ± 0.024 |
| CCATTTAGTT | 1.09 ± 0.12 |
| CCATTTCTTG | 0.9906 ± 0.0095 |
| CCATTTTTTT | 0.997 ± 0.042 |
| CCCAAAGCGG | 1.09 ± 0.032 |
| CCCAAAGGGG | 1.04 ± 0.04 |
| CCCAATTTTG | 1.05 ± 0.069 |
| CCCAGATTAA | 1.01 ± 0.085 |
| CCCAGGGGA | 1.91 ± 1 |
| CCCAGTGGGA | 2.25 ± 1.7 |
| CCCATACTGA | 1.11 ± 0.036 |
| CCCATAGTAT | 1.01 ± 0.058 |
| CCCCACTTGC | 1.32 ± 0.11 |
| CCCCAGGAAT | 1.24 ± 0.027 |
| CCCCATTTTT | 1.06 ± 0.067 |
| CCCCGGATTT | 1.09 ± 0.098 |
| CCCCGTTAGT | 1.01 ± 0.08 |
| CCCCTTGCTC | 1.47 ± 0.058 |
| CCCCTTGGGG | 1.036 ± 0.0031 |
| CCCCTTGTGT | 2.087 ± 0.015 |
| CCCGACAGCC | 1.97 ± 0.3 |
| CCCGAGGGTT | 1.01 ± 0.017 |
| CCCGGGGCTA | 1.08 ± 0.036 |

| Sequence | switch fluorescence ratio |
| --- | --- |
| CCCGGGGGGG | 1.1 ± 0.13 |
| CCCGGGGTAC | 2.969 ± 0.027 |
| CCCGGGGTAT | 1.06 ± 0.057 |
| CCCGGGGTCT | 1.02 ± 0.026 |
| CCCGGGTCGC | 1.05 ± 0.012 |
| CCCGGTACGG | 1.029 ± 0.0017 |
| CCCGGTGTGT | 1.65 ± 0.025 |
| CCCGGTTGAT | 1.047 ± 0.0074 |
| CCCGTATACT | 3.22 ± 1.6 |
| CCCGTCAGCG | 1.02 ± 0.041 |
| CCCGTGCTTC | 1.07 ± 0.063 |
| CCCGTGGAAA | 1.09 ± 0.1 |
| CCCTCCTTG | 1.0791 ± 6.3e-05 |
| CCCTGGCAGC | 1.3 ± 0.019 |
| CCCTTAGGGA | 1.02 ± 0.026 |
| CCCTTGATAC | 2.24 ± 0.1 |
| CCCTTTAGGG | 1.025 ± 0.0025 |
| CCGAAAAGAT | 1.44 ± 0.59 |
| CCGAAAGCCG | 1.11 ± 0.024 |
